Substrate: CC(=NO)C(=O)O
Assay: nitrite production by diazo-coupling, Hanes-Woolf plot
Type: biochemical, Alcaligenes faecalis
Conditions: Fe(II)-reconstituted enzyme, 10 mM Tris-HCl pH 8.0, 1 mM sodium ascorbate, 100 μM FeSO4, 37 °C, co-substrate O2, kcat apparent, per subunit

B1: rPOD (recombinant pyruvic oxime dioxygenase) (Alcaligenes faecalis) (protein)
chain: MDTPLRDKSYFDERATKEMATHLQQVQRDTRETMAFACRILAMTEQEAGLAGQISVRSERPGAYWTLRFGLGFDEATPEDFIEVDRDLNTLSGEGMANPATRFHLWVYEARPDVNSIIHTHSPWATVLATARQPLVISQMDMTPLHNDCAFLGEWPGVPIADQEGVIISKALGDKRAIILAHHGYLTAGKSCQEATYLSVYLERAARLQVRAQAAFGPLTPVDDTLAAEAHDYLLKPSIVNATFDYWSRQTQGIAPLTKTR
notes: full length, 261 residues, 29,106 Da; pET21a(+) NdeI/XhoI with own stop codon, untagged; expressed in E. coli BL21(DE3)-CodonPlus; homotetramer (135 kDa by gel filtration); Fe(II)-reconstituted
Q: For B1, which Km is on record?
A: 470 µM

Q: What about the kcat of the same protein?
A: 4.69 s⁻¹
